Data: patent US20220213227A1 (published 2022)

Target: T1, soluble extracellular region of cynomolgus monkey CD38 antigen fused to a 6-His-tag (UniProt Q5VAN0 45-301)
T1 chain: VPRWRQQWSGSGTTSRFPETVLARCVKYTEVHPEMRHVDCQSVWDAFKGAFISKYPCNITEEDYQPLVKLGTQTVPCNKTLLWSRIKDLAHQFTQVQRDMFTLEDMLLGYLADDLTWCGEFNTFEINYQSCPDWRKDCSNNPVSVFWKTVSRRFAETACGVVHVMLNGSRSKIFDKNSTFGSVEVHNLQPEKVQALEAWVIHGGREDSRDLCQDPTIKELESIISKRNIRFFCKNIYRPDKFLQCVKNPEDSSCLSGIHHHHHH
Experiment: SPR

B1: chimeric 9G7 antibody (antibody, V domains shown)
VH: QVTLKESGPGILQPSQTLSLTCSFSGLSLSTSGKGVGWIRQPSGKGLEWLAHIWWDDDKRYNPALKSRLTISKDTSSNQVFLKIASVDTADTATYYCARIELGRSYVMDYWGQGTTVTVSS
VL: DIVMTQSHKFMSTSVGDRVSISCKASQDVITSVAWFQQKPGQSPKLLIYSASYRYTGVPDRFTGSGSGTDFTFTISSVQAEDLAVYYCQQHYTIPLTFGAGTKLELKR
B1 gave a Kd of 1 nM.
